T1: recombinant human CD30L protein (human, UniProt P32971 63-234)
T1 construct: also called rhCD30L; huCD30L (ELISA)
T1 sequence (looked up): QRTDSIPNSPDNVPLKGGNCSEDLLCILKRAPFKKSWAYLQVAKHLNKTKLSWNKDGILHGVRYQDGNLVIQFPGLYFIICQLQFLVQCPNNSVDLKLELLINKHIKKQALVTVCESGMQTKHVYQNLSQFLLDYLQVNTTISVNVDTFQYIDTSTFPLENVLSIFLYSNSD

T2: human CD30L expressed on cells (human, UniProt P32971 1-234)
T2 construct: also called huCD30L; B16-huCD30L
T2 sequence: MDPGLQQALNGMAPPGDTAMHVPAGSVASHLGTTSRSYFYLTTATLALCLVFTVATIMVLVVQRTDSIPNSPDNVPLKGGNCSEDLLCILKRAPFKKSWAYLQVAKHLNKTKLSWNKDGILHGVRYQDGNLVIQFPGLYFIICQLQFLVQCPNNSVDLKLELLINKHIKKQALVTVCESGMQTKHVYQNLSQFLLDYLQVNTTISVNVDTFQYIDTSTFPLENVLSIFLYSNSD

T3: human CD30L expressed on cells (human, UniProt P32971 1-234)
T3 construct: whole, on cells; also called huCD30L; B16-huCD30L cells
T3 sequence (looked up): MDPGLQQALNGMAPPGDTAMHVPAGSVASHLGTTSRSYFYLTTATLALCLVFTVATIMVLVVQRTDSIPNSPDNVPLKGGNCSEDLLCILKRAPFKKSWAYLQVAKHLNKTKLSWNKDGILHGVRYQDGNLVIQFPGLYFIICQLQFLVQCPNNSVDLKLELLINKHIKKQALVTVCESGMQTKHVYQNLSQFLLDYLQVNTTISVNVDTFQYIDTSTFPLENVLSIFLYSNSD

T4: cynomolgus CD30L expressed on HEK293 cells (cynomolgus, UniProt A0A7N9CVX7 1-234)
T4 sequence: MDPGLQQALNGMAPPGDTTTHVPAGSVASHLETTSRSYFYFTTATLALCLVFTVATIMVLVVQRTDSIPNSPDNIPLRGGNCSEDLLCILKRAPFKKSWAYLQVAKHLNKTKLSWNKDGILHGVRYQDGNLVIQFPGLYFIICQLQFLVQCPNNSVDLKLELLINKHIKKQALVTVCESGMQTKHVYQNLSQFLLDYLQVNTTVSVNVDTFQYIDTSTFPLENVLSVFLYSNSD

T5: cynomolgus CD30L expressed on cells (cynomolgus, UniProt A0A7N9CVX7 1-234)
T5 sequence: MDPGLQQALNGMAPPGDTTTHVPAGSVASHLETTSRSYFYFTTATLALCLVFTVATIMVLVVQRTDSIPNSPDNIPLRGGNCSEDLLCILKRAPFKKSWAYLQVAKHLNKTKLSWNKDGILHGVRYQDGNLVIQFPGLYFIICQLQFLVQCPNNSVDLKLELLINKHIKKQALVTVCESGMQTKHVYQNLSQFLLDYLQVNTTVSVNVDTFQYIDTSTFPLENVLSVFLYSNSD

T6: CDH13 (human, UniProt P55290 139-693)
T6 construct: whole, on cells; also called hit #16
T6 sequence (looked up): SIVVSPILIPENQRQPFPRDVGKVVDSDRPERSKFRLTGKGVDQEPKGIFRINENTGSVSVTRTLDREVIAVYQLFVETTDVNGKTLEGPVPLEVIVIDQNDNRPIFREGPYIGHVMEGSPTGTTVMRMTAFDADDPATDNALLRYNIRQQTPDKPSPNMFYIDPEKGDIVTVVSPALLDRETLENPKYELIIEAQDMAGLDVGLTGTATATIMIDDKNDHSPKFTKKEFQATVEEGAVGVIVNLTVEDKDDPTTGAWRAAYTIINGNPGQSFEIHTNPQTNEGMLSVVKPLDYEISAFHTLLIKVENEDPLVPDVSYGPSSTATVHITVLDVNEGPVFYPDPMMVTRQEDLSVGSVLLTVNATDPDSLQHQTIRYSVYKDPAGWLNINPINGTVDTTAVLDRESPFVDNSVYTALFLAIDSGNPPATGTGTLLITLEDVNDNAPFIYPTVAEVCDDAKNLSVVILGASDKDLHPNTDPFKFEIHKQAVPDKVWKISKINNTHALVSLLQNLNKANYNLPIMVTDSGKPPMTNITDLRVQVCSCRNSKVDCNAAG

T7: recombinant human CD30L protein (human, UniProt P32971 63-234)
T7 construct: Recombinant protein used in ELISA; also called huCD30L
T7 sequence (looked up): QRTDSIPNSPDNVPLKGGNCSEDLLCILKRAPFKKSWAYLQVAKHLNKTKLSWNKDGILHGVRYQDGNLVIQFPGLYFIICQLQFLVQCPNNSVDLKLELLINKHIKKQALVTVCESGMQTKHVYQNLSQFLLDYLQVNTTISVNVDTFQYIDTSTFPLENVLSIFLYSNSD

T8: recombinant cynomolgus CD30L protein (cynomolgus, UniProt A0A7N9CVX7 63-234)
T8 construct: Recombinant protein used in ELISA; also called cyCD30L
T8 sequence: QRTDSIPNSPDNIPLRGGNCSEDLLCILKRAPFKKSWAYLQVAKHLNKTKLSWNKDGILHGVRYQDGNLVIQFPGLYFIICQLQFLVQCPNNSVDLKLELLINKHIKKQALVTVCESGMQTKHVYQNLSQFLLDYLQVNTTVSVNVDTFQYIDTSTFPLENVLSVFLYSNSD


Tests used:
[1] = target: T1, recombinant human CD30L protein; experiment: ELISA, HuCD30L
[2] = target: T2, human CD30L expressed on cells; experiment: flow cytometry, HuCD30L cells
[3] = target: T3, human CD30L expressed on cells; experiment: flow cytometry, B16-huCD30L cells
Experimental: Anti-CD30L antibody binding to a CD30L target was determined by flow cytometry, using B16 cells transfected to express human CD30L (compared to non-transfected B16), and using HEK293 cells transfected to express cynomolgus CD30L (compared to non-transfected HEK293). […] Cell surface bound antibodies were detected using a fluorescently labeled anti-human-IgG or anti-mouse IgG, depending on the Fc portion of the antibodies. After incubation with the secondary antibody, the cells were washed, fixed in a paraformaldehyde solution, and analyzed by flow cytometry to detect antibody binding.

[4] = target: T3, human CD30L expressed on cells; experiment: flow cytometry, blocking of huCD30 binding to B16-huCD30L cells
[5] = target: T4, cynomolgus CD30L expressed on HEK293 …; experiment: cell-based or functional assay
[6] = target: T3, human CD30L expressed on cells; experiment: cell-based or functional assay
[7] = target: T3, human CD30L expressed on cells; experiment: flow cytometry, PMA/ionomycin-stimulated primary lymphocytes, Patient 3 (UC, #02-180)
Text: (§1) Peripheral blood mononuclear cells (PBMCs) were isolated from freshly collected whole blood from Ulcerative Colitis (UC) and Crohn's Disease (CD) patients, by conventional density gradient centrifugation. To induce CD30L expression on primary lymphocytes, the isolated cells were stimulated overnight with Phorbol 12-myristate 13-acetate (PMA) and ionomycin. […] After washing to remove unbound antibodies, the cells were fixed in a paraformaldehyde solution and analyzed by flow cytometry to quantify cell surface antibody binding.

[8] = target: T3, human CD30L expressed on cells; experiment: flow cytometry, PMA/ionomycin-stimulated primary lymphocytes, Patient 4 (CD, #01-051)
Text: as §1

[9] = target: T3, human CD30L expressed on cells; experiment: flow cytometry, PMA/ionomycin-stimulated primary lymphocytes, Patient 2 (UC, #03-041)
Text: as §1

[10] = target: T3, human CD30L expressed on cells; experiment: flow cytometry, PMA/ionomycin-stimulated primary lymphocytes, Patient 1 (CD, #04-021)
Text: as §1

[11] = target: T5, cynomolgus CD30L expressed on cells; experiment: cell-based or functional assay
[12] = target: T2, human CD30L expressed on cells; experiment: cell-based or functional assay; remark: listed apart in the source
[13] = target: T6, CDH13; experiment: cell microarray, library and confirmation screens
[14] = target: T7, recombinant human CD30L protein; experiment: ELISA, CD30 competitor, 1/1000 dil
[15] = target: T7, recombinant human CD30L protein; experiment: ELISA, CD30 competitor, 1/10 dil
[16] = target: T8, recombinant cynomolgus CD30L protein; experiment: ELISA, 1/50 dil
[17] = target: T8, recombinant cynomolgus CD30L protein; experiment: ELISA, 1/5000 dil
[18] = target: T7, recombinant human CD30L protein; experiment: ELISA, CD30 competitor, undil
[19] = target: T7, recombinant human CD30L protein; experiment: ELISA, CD30 competitor, 1/100 dil
[20] = target: T8, recombinant cynomolgus CD30L protein; experiment: ELISA, 1/500 dil

Binder	OD [1]	MFI [2]	EC50 [7]	EC50 [8]	EC50 [9]	EC50 [10]	% inhibition [14]	% inhibition [15]	Elisa Binding (OD) [16]	Elisa Binding (OD) [17]	% inhibition [18]	% inhibition [19]	Elisa Binding (OD) [20]	also measured
anti-CD30L clone 61 (antibody, V domains shown) VH: QITLKESGPTLVKPTQTLTLTCTFSGFSLSTSGVGVGWIRQPPGKALEWLALIYWNDDKRYSPSLKSRLTITKDTSKNQVVLTMTNMDPVDTATYYCAHRRTTTVTIYYYYMDVWGKGTTVTVSS VL: not shown	1.42 OD	362 MFI	–	–	–	–	–	–	–	–	–	–	–	–
anti-CD30L Reference 1 antibody (antibody, human IgG1, lambda, V domains shown) VH: QVQLQESGPGLVKPSETLSLTCTVSGGSISSYIWSWIRQPAGKGLEWIGRIYASGNTNYNPSLKSRVTISVDTSKNQFSLKLSSMTAADTAVYYCARDYRVAGTYYYYYGLDVWGQGTTVTVSS VL: QSALTQPASVSGSPGQSITISCTGTSSDVGVYDYVSWYQQHPGKAPKLMIYEVSNRPSGVSNRFSGSKSGNTASLTISGLQTEDEADYYCSSYTSRSTWVFGGGTKLTVLG	–	–	3.07 nM	2.82 nM	3.12 nM	3.63 nM	–	–	–	–	–	–	–	EC50 [3]: 1.74 nM; IC50 [4]: 2.77 nM; Inhibition of IL-8 release in a dual cell assay (HEK293-cyCD30L cells + K299 cells) IC50 [5]: 0.68 nM; Inhibition of IL-8 release in a dual cell assay (B16-huCD30L cells + K299 cells) IC50 [6]: 1.74 nM
anti-CD30L clone 60 (antibody, V domains shown) VH: QVHLVESGGGVVQPGRSLRLSCAASGFAFNIYGMHWVRQAPGKGLEWVAVISYDGSNKVYADSVKGRFSISRDNSKNTLYLQMNSLRAEDTAVYYCAKSGGITMVRGVFDYWGQGTLVTVSS VL: DIQMTQSPSSLPASVGDRVTITCRASQGIRNDLGWYQQKPGKAPKRLIHAASSLHSGVPSRFSGSGSGTEFTLTISSLQPEDFATYYCLQHNRYPITFGQGTRLEIK	0.23 OD	1090 MFI	–	–	–	–	–	–	–	–	–	–	–	–
anti-CD30L antibody clone 2 with IgG1 constant region SEQ ID NO: 502 (antibody, V domains shown, copies: 2 + 2) VH: EVQLVESGGGLVQPGRSLRLSCAASGFNFDDYAMHWVRQAPGKGLEWVSGISWRSGNIGYAGSVKGRFTISRDNAKNSLYLQMNSLRPEDSALYYCAKDKGIGFNWNYEGFDYWGQGTLVTVSS VL: DIQMTQSPSSLSASVGDRVTITCRASQGISNHLAWFQQKPGKAPKSLIYAASSLQSGVPSKFSGSGSGTDFTLTISSLQPEDFATYYCQQYVTYPLTFGGGTKVEIK	–	–	–	–	–	–	–	–	–	–	–	–	–	IL-8 release dual cell assay, fold better IC50 than reference 1 (ref1) anti-CD30L [11]: 2.6 fold; IL-8 release dual cell assay, fold better IC50 than reference 1 (ref1) anti-CD30L [12]: 2 fold; binding result [13]: no binding (tested: 5 µg/mL)
Clone 2 (antibody, V domains shown, also called CLONE_2 (parental)) VH: EVQLVESGGGLVQPGRSLRLSCAASGFNFDDYAMHWVRQAPGKGLEWVSGISWRSGNIGYAGSVKGRFTISRDNAKNSLYLQMNSLRPEDSALYYCAKDKGIGFNWNYEGFDYWGQGTLVTVSS VL: DIQMTQSPSSLSASVGDRVTITCRASQGISNHLAWFQQKPGKAPKSLIYAASSLQSGVPSKFSGSGSGTDFTLTISSLQPEDFATYYCQQYVTYPLTFGGGTKVEIK	–	–	1.71 nM	1.72 nM	1.55 nM	2.4 nM	1%	98%	3.76 OD	1.23 OD	98%	45%	3.18 OD	–
Clone 1 (antibody, V domains shown, also called CLONE_1 (parental)) VH: QVQLQESGPGLVKPSETLSLTCTVSGGSISGYYWSWIRQPPVKGLEWIGYIFYSGYTKYNPSLKSRVTISVDTSKNQFSLKLSSVTAADTAVYYCARDRWDFDYWGQGALVTVSS VL: AIQMTQSPSYLSASVGDRVTIACRASQGIRNNLGWYQQKPGKAPKLLIYAESSLQSGVPSRFSGSGSGTDFTLTISSLQPEDFATYYCLQDFNYPYTFGQGTKLEIK	–	–	5.57 nM	4.53 nM	5.43 nM	7.45 nM	0%	98%	2.83 OD	1.16 OD	98%	34%	2.87 OD	–

Reference: patent US20240254246A1 (PROMETHEUS BIOSCIENCES, published 2024)
